Assay results taken from patent US20250152729A1 (CANCER RESEARCH TECHNOLOGY, published 2025).

T1: human SEMA4A expressed on cells (UniProt ID Q9H3S1, isoform 1) (human, UniProt Q9H3S1 33-761)
T1 sequence: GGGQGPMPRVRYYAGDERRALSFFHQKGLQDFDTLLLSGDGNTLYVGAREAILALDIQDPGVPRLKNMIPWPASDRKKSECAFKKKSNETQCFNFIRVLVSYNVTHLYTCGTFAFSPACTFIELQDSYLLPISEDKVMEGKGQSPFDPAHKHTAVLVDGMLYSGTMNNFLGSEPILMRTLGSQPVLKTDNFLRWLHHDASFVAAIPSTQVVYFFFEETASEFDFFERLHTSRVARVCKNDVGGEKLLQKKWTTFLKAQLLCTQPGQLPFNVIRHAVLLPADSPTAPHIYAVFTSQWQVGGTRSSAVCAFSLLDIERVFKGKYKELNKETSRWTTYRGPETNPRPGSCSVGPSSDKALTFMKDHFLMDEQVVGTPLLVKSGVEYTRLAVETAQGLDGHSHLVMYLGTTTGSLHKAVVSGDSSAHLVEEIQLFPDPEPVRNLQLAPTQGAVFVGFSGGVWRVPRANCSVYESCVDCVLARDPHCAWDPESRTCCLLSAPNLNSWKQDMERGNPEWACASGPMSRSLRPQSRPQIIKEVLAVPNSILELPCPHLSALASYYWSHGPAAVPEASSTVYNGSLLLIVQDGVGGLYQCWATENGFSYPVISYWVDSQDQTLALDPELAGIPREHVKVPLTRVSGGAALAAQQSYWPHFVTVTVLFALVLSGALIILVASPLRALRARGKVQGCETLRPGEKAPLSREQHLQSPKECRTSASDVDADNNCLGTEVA

T2: mouse SEMA4A expressed on expi293 cells (UniProt ID Q62178) (mouse, UniProt Q62178 33-760)
T2 construct: Transient transfection in expi293 cells
T2 sequence: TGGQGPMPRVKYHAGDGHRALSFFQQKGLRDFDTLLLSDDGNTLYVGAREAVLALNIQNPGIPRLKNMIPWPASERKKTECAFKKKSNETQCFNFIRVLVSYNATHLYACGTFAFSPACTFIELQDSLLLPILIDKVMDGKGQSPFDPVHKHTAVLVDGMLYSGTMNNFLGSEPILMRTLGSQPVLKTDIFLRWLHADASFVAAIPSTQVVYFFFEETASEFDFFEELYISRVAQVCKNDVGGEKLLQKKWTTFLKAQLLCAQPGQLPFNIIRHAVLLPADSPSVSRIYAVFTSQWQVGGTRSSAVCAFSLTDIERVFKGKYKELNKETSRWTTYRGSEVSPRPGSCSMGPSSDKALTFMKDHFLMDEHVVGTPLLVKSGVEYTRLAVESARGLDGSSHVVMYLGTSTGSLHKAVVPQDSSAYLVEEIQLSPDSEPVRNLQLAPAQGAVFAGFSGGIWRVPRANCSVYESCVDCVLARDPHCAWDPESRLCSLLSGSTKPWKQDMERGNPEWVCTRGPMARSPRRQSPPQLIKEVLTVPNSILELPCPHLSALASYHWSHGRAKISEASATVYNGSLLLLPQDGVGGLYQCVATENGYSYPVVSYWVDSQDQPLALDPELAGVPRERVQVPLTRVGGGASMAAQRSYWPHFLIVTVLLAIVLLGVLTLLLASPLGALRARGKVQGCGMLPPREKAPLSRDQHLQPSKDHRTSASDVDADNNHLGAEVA


Experiments:
[1] = target: T1, human SEMA4A expressed on cells …; test: cell-based or functional assay
[2] = target: T1, human SEMA4A expressed on cells …; test: Mirrorball epitope competition on MM.1S cells; competitor: fixed 5E3 mouse IgG1
Description: The 5E3 epitope competition assay assessed the ability of the un-purified IgGs expressed in a human IgG1 backbone to compete for binding to the mouse 5E3 epitope on human SEMA4A endogenously expressed by MM.1S cells, a human multiple myeloma cell line. The assay utilised a secondary-Alexa Fluor 647 conjugate, 5E3 expressed in a mouse IgG1 (A) backbone (BioLegend®, San Diego, CA, 148402) and a Mirrorball fluorescence cytometer (SPT Labtech, UK). Binding of 5E3 mouse IgG1 to MM.1S cells was measured via an anti-mouse secondary labelled with Alexa Fluor 647 (Invitrogen, A21235) in the presence of a single concentration of each un-purified human IgG1. […] 10 μl undiluted un-purified IgG, contained in Expi293 expression medium (Gibco, UK, A1435101), were added to the assay plate (Greiner Bio-one, UK, 781906), followed by 10 ul of 1.2 nM 5E3 mouse IgG1 and 20 μl MM.1S cell suspension containing 1,500 cells that was spiked with 4 nM anti-mouse Alexa Fluor 647. The assay plate was incubated for 4 hours at room temperature, in the dark prior to reading on a Mirrorball fluorescence cytometer (SPT Labtech, UK) using a 640 nm laser for excitation and measuring emission in the FL-4 channel (650-690 nm). Data was analysed as Count x median mean intensity (x FLU). All dilutions were performed in Hanks' balanced salt solution (Sigma, UK; cat: H8264) containing 0.1% (w/V) BSA (Sigma, UK; cat: A9576). Maximum binding signal was determined by analysing the binding of 5E3 mouse IgG1 to MM.1S cells in the absence of competitor un-purified human IgG1. Background binding signal was determined by analysing the fluorescence generated in the absence of 5E3 mouse IgG1. Data were analysed and graphed using GraphPad Prism software (GraphPad Software, Inc, La Jolla, CA).
Hits from the primary screening were re-formatted into the human Alya IgG1 vector and re-expressed and purified as described in section 4.1. 5E3 epitope competition assay methods are described in section 3.2 and were used to test purified human Alya IgG1s. The purified human Alya IgG1s were diluted to a 4× stock and then serially diluted using 4-fold dilutions to generate a 10 point concentration response curve.

[3] = target: T2, mouse SEMA4A expressed on expi293 cells …; test: Mirrorball direct binding, dilution series on expi293 cells transiently transfected with mouse SEMA4A, anti-human Alexa Fluor 647

Row | Binder | IC50 (pM), Fab-ZAP cell kill, NCI-H929 [1] | Max % Cell Kill, Fab-ZAP, NCI-H929 [1] | IC50 [2] | binding result [3]
1 | 5Hg2-5Lg6 human Alya IgG1 (antibody, V domains shown, Humanised 5E3; human IgG1 Alya constant (239iCys, S442C, EU), lambda light chain; purified, unconjugated) VH: QVQLVQSGAEVKKPGASVKVSCKASGYTFTDYWMHWVRQAPGQRLEWMGAIDTSDSYTSYNQKFKGRVTITRDTSASTAYMELSSLRSEDTAVYYCARDYGNFYYYAMDYWGQGTLVTVSS VL: SYELTQPSSVSVSPGQTARITCRSSTGAVTTSNYANWFQQKPGQAPVLVIYGTNNRAPGIPERFSGSSSGTTVTLTISGAQVEDEADYYCALWYSNHWVFGGGTKLTVL | 42 pM | 22% | 71.8 nM | binds
2 | 5Hg5-5Lg2 human Alya IgG1 (antibody, V domains shown, Humanised 5E3; human IgG1 Alya constant (239iCys, S442C, EU), lambda light chain; purified, unconjugated; also called 5HE5/5Lg2) VH: EVQLVQSGAEVKKPGESLRISCKGSGYSFTDYWMHWVRQMPGKGLEWMGAIDTSDSYTSYNQKFKGQVTISADKSISTAYLQWSSLKASDTAMYYCARDYGNFYYYAMDYWGQGTLVTVSS VL: QAVVTQEPSLTVSPGGTVTLTCRSSTGAVTTSNYANWFQQKPGQAPRTLIYGTNNRAPWTPARFSGSLLGGKAALTLLGAQPEDEAEYYCALWYSNHWVFGGGTKLTVL | 167 pM | 51% | 14.9 nM | binds
3 | 5Hg4-5Lg4 human Alya IgG1 (antibody, V domains shown, Humanised 5E3; human IgG1 Alya constant (239iCys, S442C, EU), lambda light chain; purified, unconjugated) VH: QVQLVQSGSELKKPGASVKVSCKASGYTFTDYWMHWVRQAPGQGLEWMGAIDTSDSYTSYNQKFKGRFVFSLDTSVSTAYLQICSLKAEDTAVYYCARDYGNFYYYAMDYWGQGTLVTVSS VL: QSALTQPPSVSGSPGQSVTISCRSSTGAVTTSNYANWYQQPPGTAPKLMIYGTNNRAPGVPDRFSGSKSGNTASLTISGLQAEDEADYYCALWYSNHWVFGGGTKLTVL | 119 pM | 33% | 45.5 nM | binds
4 | 5Hg4-5Lg1 human Alya IgG1 (antibody, V domains shown, Humanised 5E3; human IgG1 Alya constant (239iCys, S442C, EU), lambda light chain; purified, unconjugated) VH: QVQLVQSGSELKKPGASVKVSCKASGYTFTDYWMHWVRQAPGQGLEWMGAIDTSDSYTSYNQKFKGRFVFSLDTSVSTAYLQICSLKAEDTAVYYCARDYGNFYYYAMDYWGQGTLVTVSS VL: QAVVTQEPSLTVSPGGTVTLTCRSSTGAVTTSNYANWFQQKPGQAPRTLIYGTNNRAPWTPARFSGSLLGGKAALTLSGAQPEDEAEYYCALWYSNHWVFGGGTKLTVL | 122 pM | 56% | 9.7 nM | binds
5 | 5Hg4-5Lg2 human Alya IgG1 (antibody, V domains shown, Humanised 5E3; human IgG1 Alya constant (239iCys, S442C, EU), lambda light chain; purified, unconjugated) VH: QVQLVQSGSELKKPGASVKVSCKASGYTFTDYWMHWVRQAPGQGLEWMGAIDTSDSYTSYNQKFKGRFVFSLDTSVSTAYLQICSLKAEDTAVYYCARDYGNFYYYAMDYWGQGTLVTVSS VL: QAVVTQEPSLTVSPGGTVTLTCRSSTGAVTTSNYANWFQQKPGQAPRTLIYGTNNRAPWTPARFSGSLLGGKAALTLLGAQPEDEAEYYCALWYSNHWVFGGGTKLTVL | 151 pM | 58% | 8.4 nM | binds
